Assay: soluble on expression in E. coli; label from the status in PepcDB or PDB records

Row | Sequence | soluble on expression in E. coli
1 | MGSDKIHHHHHHMKYIINHSNDTAFNIALEEYAFKHLLDEDQIFLLWINKPSIIVGRHQNTIEEINRDYVRENGIEVVRRISGGGAVYHDLNNLNYTIISKEDENKAFDFKSFSTPVINTLAQLGVKAEFTGRNDLEIDGKKFCGNAQAYINGRIMHHGCLLFDVDLSVLANALKVSKDKFESKGVKSVRARVTNIINELPKKITVEKFRDLLLEYMKKEYPEMTEYVFSEEELAEINRIKDTKFGTWDWNYGKSPEFNVRRGIKFTSGKVEVFANVTESKIQDIKIYGDFFGIEDVAAVEDVLRGVKYEREDVLKALKTIDITRYFAGISREEIAEAVVG | soluble
2 | MKTIGLLGGMSWESTIPYYRLINEGIKQQLGGLHSASLLLHSVDFHDIEVCQRRDEWDKAGDILAQAAHGLQQAGAEGIVLCTNTMHKIAHVIESRCSLPFLHIADATGRAIARQGLHRVALLGTRYTMEQDFYRGRLEQQFAIETIVPEADDRARINQVIFDELCQGTFTDASRHYYLQVIEQLAAQGAQGVIFGCTEIGLLVPQTQSALPVFDTTAIHAADAVSFMLSSSAPE | soluble
3 | GINDLDISPIDPQTGGSFDQQGVFVKGYAMLGVTGQKGIDGSPDLDGQDEGESGFYRTTFNCNELPTDECLWAWQKNQDIPQLTSISWSPSSQRTEWVYVRLGYDITQYNFFLDQTEGMTDAETLRQRAEIRFLRALHYWYFLDLFGKAPFKEHFSNDLPVEKKGTELYTYIQNELNEIEADMYEPRQAPFGRADKAANWLLRARLYLNAGVYTGQTDYAKAEEYASKVIGSAYKLCTNYSELFMADNDENENAMQEIILPIRQDGVKTRNYGGSTYLVCGTRVAGMPRMGTTNGWSCIFARAAMVQKFFSNLEDVPMLPADVEIPTKGLDTDEQIDAFDAEHGIRTEDMIKAAGDDRALLYSGVGGGRRKIQTDAISGFTDGLSIVKWQNYRSDGKPVSHATYPDTDIPLFRLAEAYLTRAEAIFRQGGDATGDINELRKRANCTRKVQTVTEQELIDEWAREFYLEGRRRSDLVRFGMFTTNKYLWDWKGGAMNGTSVASYYNKYPIPVSDINNNRNMSQNEGYK | soluble
4 | MGHHHHHHSHMHVDREFAVVTDMKNSSSVSNTLTNGCVINGHLDFPSTTPLSGMESRNGQCLTGTNGISSGLAPGQPFPSSQGSLCISGTEEPEKTLRANPELCGSLHLNGSPSSCIASRPSWVEDIGDNLYYGHYHGFGDTAESIPELNSVVEHSKSVKVQERYDSAVLGTMHLHHGS | not soluble
5 | MGSDKIHHHHHHMKKLLNTLYVTRQETYVHKERDTIVINSAGEKLAQFPALTISNILCFGQVSVSPPMMGYCGENGIGLVFYTEYGRFLARMIGKQTGNVLLRRTQYRLADDPEKANAIARVMVGAKIANARTVLMREIRNHGEHANISRAVEQLGYSLKSCQFSQSVPQTMGIEGDAAATYFSVFNGLIRGSRFQFNGRIRRPATDPVNALLSFIYSLITQECVSALMGVGLDPYVGFLHQDRPGRPSLALDLLEEFRASWADRFVLTLLNRRQLSPQAFVTEASGAVRLTDDTRKQVLVAFQERKQEEVVHPYLQEKVPYGLLPHCQALLLARHLRGDMEFYTPYLIK | not soluble
6 | MDVIKIGDIVARKSYQCDLLFRVIDIKEKNGEWEAILYGEDVRLVADAPCSDLVVIDEQEQQERKKREIELLEQSYRLFRQDYQAIKQKVEYRATGGYRVEKDFFQIPGRVLHLDGDPLYLRKCMDLYERIGVPVHGIYCEESEMPEKVGYWIEQFRPDILVITGHDSYSKSKGKVHELKAYRHSRHFVQTVKEARKKVPHLDQLIIFAGACQSHFESLIRAGANFASSPARVNIHALDPVYIVSRLSFTPFTETVDVWDVLRNTLTGEKGLGGVETKGVLRTGMPFRLIEDREENRRS | not soluble
7 | SNAMMIKASTNEFRFCFKQMNKSQHELVLGWIHQPHINEWLHGDGLSNTIKDLHEFLNDGKPWATHWIAYDNEIPFAYLITSEIEKSEEYPDGAVTLDLFICRLDYIGKGLSVQMIHEFILSQFSDTKIVLINPEISNERAVHVYKKAGFEIIGEFIASWHPVPHYKMKLCIEDLKKQRLSA | soluble
8 | MAPLGTTVLLWSLLRSSPGVERVCFRARIQPWHGGLLQPLPCSFEMGLPRRRFSSEAESGSPETKKPTFMDEEVQSILTKMTGLNLQKTFKPAIQELKPPTYKLMTQAQLEEATRQAVEAAKVRLKMPPVLEERVPINDVLAEDKILEGTETTKYVFTDISYSIPHRCLEHHHHHHH | not soluble
9 | LTSTLLRLSTDKIGAIIAIENQDSLESYVNIGYRVTSDFSPELLVTIFYNKQSPLHDGAVIVRDYQIVSVSSYFPMTRQLIDVSYGSRHRSALGLTEKCDAIVFIVSETTGKISVAVRGVIK | not soluble
10 | MAKELAEKAKEAFLDDDFDVAVDLYSKAIDLDPNCAAFFADRAQANIKIDNFTEAVVDANKAIELEPTLAKAYLRKGTACMKLEEYSTAKAALEKGASVAPNEPKFKKMIDECDLRIAEEEKDLVQPMPPSLPSSSTTPLATEADAPPVPIPAAPAKPMFRHEFYQKPEEAVVTIFAKKVPKENVTVEFGEQILSVVIDVAGEEAYHLQPRLFGKIIPEKCRFEVLSTKVEIRLAKAEIITWASLEYGKGQSVLPKPNVSSALSQRPVYPSSKPAKDWDKLEAEVKKQEKDEKLDGDAAMNKFFSDIYSSADEDMRRAMNKSFAESNGTVLSTNWKEVGTKKVESTPPDGMELKKWEY | not soluble
11 | MFEPMMEMSDDAVIKVVGVGGGGGNAVEHMVRESIEGVEFMSINTDAQALRKTSVGTVIQIGGNITKGLGAGANPQVGRDAALEDKERIKEFLTGADMVFIAAGMGGGTGTGAAPVIAEVAKELGILTVAVVTKPFSFEGKKRLAFAEQGIEELSKHVDSLITIPNEKLLKVLGRGITLLEAFASANNVLKNAVQGIAELITRPGMINVDFADVRTVMSEMGHAMMGSGVARGEDRAEEAAEMAISSPLLEDIDLAGARGVLVNITAGLDMRLDEFETVGNTVKAFASDNATVVIGTSLDPDMADEIRVTVVATGIGNEKKPDITLVAGGKSKVAPVSAPVTSRVEEKAAQPLHERVEVKTQPAAAPSHSSASQSVAPKPEKESGYLDIPAFLRRQAD | not soluble
12 | SQDEVETEVIIKDIFKQGKICFIPQYQFQSNHMDMVRLTSPEEIALLPKTSWNIHQPGEGDVREEALSTGGLDLIFLPGLGFDKDGNRLGRGKGYYDTYLKRCVQHQEVKPYTMALAFKEQICPQIPVDEHDMKVDEVLYEDSPAS | not soluble
13 | MGSDKIHHHHHHMLSVPPDKSITHRALILSALAETESTLYNLLRCLDTERTHDILEKLGTRFEGDWEKMKVFPKPFAEPIEPLFCGNSGTTTRLMSGVLASYEMFTVLYGDPSLSRRPMRRVIEPLEMMGARFMARQNNYLPMAIKGNHLSGISYKTPVASAQVKSAVLLAGLRASGRTIVIEPAKSRDHTERMLKNLGVPVEVEGTRVVLEPATFRGFTMKVPGDISSAAFFVVLGAIHPNARITVTDVGLNPTRTGLLEVMKLMGANLEWEITEENLEPIGTVRVETSPNLKGVVVPEHLVPLMIDELPLVALLGVFAEGETVVRNAEELRKKESDRIRVLVENFKRLGVEIEEFKDGFKIVGKQSIKGGSVDPEGDHRMAMLFSIAGLVSEEGVDVKDHECVAVSFPNFYELLERVVIS | not soluble
14 | MSLTTPSKKTLLFDLDGTLVDSFPGIRTSFLHTLHEKNWEIPSEERISQVPGPPMEWTFQDLGMTPEQAQDALQTYLEHYGQVGWDLSEAFPGMRDLLIRLKYEGFRLCTATSKGEFFAEKVLRKFEMFDLFEFMGAATDNGNRRSKSAVIKHVLDSVGLDEPNDILMIGDRSHDIEGSSEFGIDCVAVTWGYGSKTEWDAARYTVSTAEELERIIHDWAEGHHHHHH | soluble
15 | MSAYRHAVERIDSSDLACGVVLHSAPGYPAFPVRLATEIFQRALARLPGDGPVTLWDPCCGSGYLLTVLGLLHRRSLRQVIASDVDPAPLELAAKNLALLSPAGLTARELERREQSERFGKPSYLEAAQAARRLRERLTAEGGALPCAIRTADVFDPRALSAVLAGSAPDVVLTDLPYGERTHWEGQVPAQPVAGLLRSLASALPAHAVIAVTDRSRKIPVAPVKALERLKIGTRSAVLVRAADVLEAGP | soluble

Reference: the DeepSol protein solubility set
